Data on 41 sequences can be found in the nanobody polyreactivity screen of Harvey et al. (2022).

A short description of this series: yeast display, Sf9 membrane polyspecificity reagent, FACS + sequencing; frameworks hold sequencing errors. Put shortly:
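A nanobody's polyreactivity label depends on the gate it was sorted from. Yeast display cells were stained with 10% biotinylated, detergent-solubilized Sf9 membrane reagent for 1 hour at 4 °C, enriched on streptavidin microbeads and sorted by FACS. The low and high (top ~1%) gates were set on anti-HA fluorescence for expression and streptavidin fluorescence for reagent binding.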
Consider “QVQLGESGGGLVQSGGSLRLSCAASGSIFDWYDKGWYRQAPGKERELVATITRDGSTNYADSVKGRFTISRDNAKNTVYLQMNSLKPEDTAVYYCAAESRRFWYGLFGNEYGYWGQGTQVTVSS”, for which the “polyreactivity (PSR sort gate)” value is listed as “low polyreactivity”. “QVQLGESGLGLVQAGGSLRLSCAAYGSIFYIYAMGWYRQAPGKERELVAAISRSGGRTYYADSVKGRFTISRDNAKNTVYLQMNSLKPEYTAVYYCAARDHYSNGGMNYWGQGTQVTVSS”: the “polyreactivity (PSR sort gate)” value is on record as “high polyreactivity”. The result for “QVQLGESRGGLVQAGGSLRLSCAASGTFAYKTIGWYRQAPGKEREWVAAITSSGGSTYYADSVKGRFTISRDNAKNTVYVLMNSLKPEDTAVYYCDKGSTWYYRKYDYWGQGTQVTVSS” reads “high polyreactivity”. The result for “QVQLHESAGGLVQAGGSLRLRCSASGYISCDASRGWYRQAPGKERELAASITKGSSTNYADSVKGRFTIRDNAKNTVYLQMNRLKPEDTAVCYCAVTYPYWGDYTYWGQGTQVTVSS” reads “low polyreactivity”; that for “QVQLHESGGGLVQAGGSLRLICAASGSISILQSMGWYRQAPGKERELVAGINWGATTYYADRVKGRLTTSRDYAKNTVYLQMNSLKPEATAVYYCAVPTYYTNPLLYWGQGTQVTVSS”, “low polyreactivity”; that for “QVQLIESGGGLDQAGGSLRLSCAASGFIFWEYAMGWYRQAPGKERELVAGISTSGGSTYYADSVKGLFTISRDNAKNTVYLQMNSLKPEDTAVYYCAVEGWDDTYFRQDMDYWGQGTQVTVSS”, “low polyreactivity”. The result for “QVQLIESGGGLVQAGGSLRLSCAASGIIFYDYAMGWYRPAPGKERELVATITSGGSTNYADSVKGRFTISRDNAKNTVYLQMNSLKPEDTAVYYCAAGRGLILGGVYGYDYWGQGTQVTVSS” reads “low polyreactivity”; that for “QVQLIESGGGLVQAGGSLRLSCAASGRTFGRYTMGWYRQAPGKERELVADISGTGGRTYYSDSVKGRFTISRDNAKNTVYLQMNSLKPEDTAVYYCNAVLHRRFDYWGQGTQVTVSS”, “high polyreactivity”. With “QVQLKESGGGQVQAGGSLRLCCAASGKIIPDAGMGWYRQAPGKEREFVAGISRGANTYYADSVKGRFTISRDNAKNTLYLHMYSLKPEDTAVFYCAVNVPWTYQYGYWGQGTQVTVSS”, the “polyreactivity (PSR sort gate)” value was “high polyreactivity”. “QVQLLDSGGGLVQAGGSLRLSCAASGSIFGRNAMVWYRQAPGKEREFVATITSRGGRTYYADSVKGRFTISRDNAKNTVYLQMNSLKPEDTAVYYCAADTYISTLKKYRLGDYWGQGTQVTVSS”: the “polyreactivity (PSR sort gate)” value is “low polyreactivity”.

“QVQLLESGAGLVHAGGSLRISCAASGRTFGLNAMAWNPPAHGKETELVAAISSSGGSTYYADSVKGRFTISRDNPKNTVYLQMNSLTPEDTAVYYCAKVLNRYGTAYYYWGQGTQVTVSS”: the “polyreactivity (PSR sort gate)” value is “high polyreactivity”. The result for “QVQLLESGAGLVQAGGSLRLSCAAYGSTSYDYAMGWYRQAPGKERELVAAISGSSSTTYYADSVKGRFTISRDNAKNTVYLQMNSLKPEDTAVYYCNAVTTSGYGYGYWGQGTQVTVSS” reads “low polyreactivity”; that for “QVQLLESGAGLVQAGGSLRLSSAASGSIFNLNAMAWYRQAPGKERELVAGIRWSGGRTYYADSVKGRFTISRDNAKNTVYLQMNSLKPVDNEVYYCTAVGYLSWWYDYEYWGQGTQVTVST”, “high polyreactivity”; that for “QVQLLESGGGIVQAGGSLRLSCDSSGSTFGTNAMGWYRQAPGKERELVAVITFSGGSTYYADSVKGRFTISRDNAKNTVYLQMNSLKPEDTAVYYCAKDGFITFVYDHDYWGQGTQVTVSS”, “low polyreactivity”. In the case of “QVQLLESGGGKVQAVGSLRLSCAASGSIDDWYAMGWYRQAPGKERELLAAINEGGGSTYYADSVKGRFTISRDNAKNTVYFQMNILKPEDTAFYYCNAELSFRYPVFRELDYWGQGSQVTVSS”, the “polyreactivity (PSR sort gate)” value is “low polyreactivity”. The result for “QVQLLESGGGLDQAGGSLRISCPASGSIFWSNAMGWYRQAPGKEREFVAALTWSGDNTYFADSVKGRFTISRENAKNTVDLQMNSLKPEDTAVYYCAAVFQNKAVGGVTSIYDCRGQGTQVTVSS” reads “low polyreactivity”; that for “QVQLLESGGGLVHAGGSLRLSCAASGSIFPYYAMGWYRQAPGKERELVAAISDSGDSTYYADSVKGRFTISRDNAKNTVYLQMNSLKPEDTAVYYCNADSRTDYHPHGTMVGPDREYWGQGTQVTVSS”, “low polyreactivity”; that for “QVQLLESGGGLVKAGGSLRLSCAPYGSIFYGYAMGWYRPAPGKERELVAAITRSGGSTYYADSVKGRFTITRFNAKNTVYLQMNSLKPEDTAVYYCAAGWRSVSVRYYGPSDYWGQGTQVTVSS”, “low polyreactivity”. The result for “QVQLLESGGGLVLAGGSLRLSCAASGFIIRPYAIGWYRQAPGKERELVAAITYSSGSTYYADSVKGRFTISRDNAKYTVYLEMNSLKPEDTAVYYCNAEFWYETLYEYDYWGQGTQLTVSS” reads “high polyreactivity”; that for “QVQLLESGGGLVPAGGSLRLSCAASGYIFHRYAMGWSRQAPGKERELVAAITWTGARTYYADSVKGRFTISRDNAKNTVYLQMNSLKPEDTAVYYAGPASYSFAKSGYWGQGTQVTVSS”, “high polyreactivity”. On to “QVQLLESGGGLVQAGGSHRLSCAASGRIFGSNAMGWYRQAPGKERELVAAITRGGSTNYADSVKGRFTISLDNAKNTVYLQMNSLKPEDTAVYYCAVRWYRKYNYWGQGTQVTVSS”, for which the “polyreactivity (PSR sort gate)” value was “high polyreactivity”. For “QVQLLESGGGLVQAGGSLRITCAASGFTFAVYAMGWYRQAPGKERELVAAISRSGTRTYYADSVKGRFTISRDNAKNTVYLLMNSLKPEDTAVYYCAADKYRHGYDYWGQGTQVTVSS”, the “polyreactivity (PSR sort gate)” value is “low polyreactivity”. The result for “QVQLLESGGGLVQAGGSLRLRCAASGSIFISYAMGWYRQAPGKERELVAAISIRGTRTYYADSVKGRFTISRDNAKNTVYLHMNCLKPEDTAVYYCAADASYTEGMDYWGQGTQGTVSS” reads “high polyreactivity”.

With “QVQLLESGGGLVQAGGSLRLSCAAAGIIFGYYTMGWYRQAPGNERELVAAITTTGGSTYYADSVKGRCTISRDNAKNTVYLQMNSLKPEDTAVYYCAARKWSHRTISDYWGQGTQVTVSS”, the “polyreactivity (PSR sort gate)” value is “high polyreactivity”.

In the case of “QVQLLESGGGLVQAGGSLRLSCAASGAIFFIYVMGWYRQAPGKERELVAAISGSGGPTYYADSVKVRFTISRDNAKNTVFLQMNRLKPEDTAVYYCAARGYRGRMGYWGQGTQVTVSS”, the “polyreactivity (PSR sort gate)” value is recorded as “low polyreactivity”. The result for “QVQLLESGGGLVQAGGSLRLSCAASGFNFYYYAMGWYRQAPGKERELVAAISKSGGSTHYADSVKGRFTISRDNAKHTVYLQMNSLKPEDTAVYYCAARYILSKYGSGVRYNYWGQGTQVTVSS” reads “high polyreactivity”.

For the sequence “QVQLLESGGGLVQAGGSLRLSCAASGFTFLQYAMGWYRQAPGKERELVAAISWSGSRTYYADSVKGRFTISRDNAKNTVYLQMNSLKPEETAVYYCAAVYGGLTLTRNYYWGQGTQVTVSS”, the “polyreactivity (PSR sort gate)” value is “high polyreactivity”. The result for “QVQLLESGGGLVQAGGSLRLSCAASGFTFYLYTMGWYRQATGKERELVAAISRSGDRTYYADSVKGRFTISRDNAKNNVYLQMNSLKPEDTAVYYCAARSYRPTRGDYWGQGTQVTVST” reads “high polyreactivity”; that for “QVQLLESGGGLVQAGGSLRLSCAASGLTYYYAMGWYRQAPGKERELVAAISYSGGRTNYADSVKGRFTISRDNAKNTVYLQMNSLKPEDTAVYFCAAVGPRTDYSGYRYYYWVQGTQVTVSS”, “high polyreactivity”; that for “QVQLLESGGGLVQAGGSLRLSCAASGRIFDYYAMGWYRQAPGKERELVAAISDSGDSTYYADSVKGRFTISRDNAKNTVYLQMNRLKPVDTAVYYCAAQGGWIPAQDVRSSWGYNYWGQGTQVSVSS”, “high polyreactivity”. The result for “QVQLLESGGGLVQAGGSLRLSCAASGRIFGVNAMGWYRQAPGKERELVAAISAGGGNTYYADSVKGRFTISRDNAKNSVYLQMNSLKPEDTAVYYCNVQRSLRMDYWGQGTQVTVSS” reads “high polyreactivity”; that for “QVQLLESGGGLVQAGGSLRLSCAASGRIFHYNAMGWYRQAPGKERELVAAITRRGTSTYYADSVKGRFTISRDNAKNTVYLQMNSLKPEDTAVYYCNTDTYYRLLDYWGQGTQVTVSS”, “low polyreactivity”; that for “QVQLLESGGGLVQAGGSLRLSCAASGRILTGYAMGWYRQAPGKERELVASINWRGGSTYYADSVKRRFTISRDNAKNTVYLQLNSLKPEDTAVYYCAARVRVTGTYYTKYDYWGQGTQVTVSS”, “high polyreactivity”. The result for “QVQLLESGGGLVQAGGSLRLSCAASGRTFAYNAMAWDRQAPGTERELVADITSGGSTYYADSVKGRFTISRDNAKNTVYLQMNSRKPEDTAVYYCAGYPQFWYWDYNYWGQGTQVTVSS” reads “high polyreactivity”.

As for “QVQLLESGGGLVQAGGSLRLSCAASGRTFEYYAMGWYRQAPGKERELDAAITSGGITYYADSVKGRFTISRDNAKITVYLQMNSLKPEDSAVYYCAAKGWYFGYGRYGYWGQGTQVTVSS”, the “polyreactivity (PSR sort gate)” value is “high polyreactivity”. The result for “QVQLLESGGGLVQAGGSLRLSCAASGRTFSGYAMGWYRQAPGKERELVAAISESGDGTYYADSVKGRFTISRDNAKNTVYLQMNSLKPEDTAVYYCAADGTLFSEYYWFFGYHDYWGQGTQVTVSS” reads “high polyreactivity”. The result for “QVQLLESGGGLVQAGGSLRLSCAASGRTFTYYAMGWYRQAPGKERELVASISTTGRTYYADSVKGRFTISRDNAKNTVYLQMNSLKPDDTAVYYCATRSRYYYDYWGQGTQVTVSS” reads “high polyreactivity”. The result for “QVQLLESGGGLVQAGGSLRLSCAASGSIFEGNGMGWYRQAPGKERELVAAITFRSGSTYYADSVKGRFTISRDNAKNTVYLQMNSLKPEDTAVYYCAADEYYEVSAYDYWGQGTQVTVSS” reads “low polyreactivity”; that for “QVQLLESGGGLVQAGGSLRLSCAASGSIFGGYSMGWYRQAPGKERELVAAISWSGASTYYADSVKGRFTISRDNATTTVSLQMNSLKPEDTAVYSCAARSRVDLARSGYWGQGCQVTVSS”, “low polyreactivity”. On to “QVQLLESGGGLVQAGGSLRLSCAASGSIFGRYVMGWYRQAPGKERELVPRITQSGGSTYYADSVKGRFTISRDNAKNTVYLQMNSLKPEDTAVYYCNVARWGNIPVGEYDYWGQGTQVTVSS”, for which the “polyreactivity (PSR sort gate)” value is “high polyreactivity”. The result for “QVQLLESGGGLVQAGGSLRLSCAASGSIFYLYAMGWYIQAPGKERELVAVIRRGGSTKYADSVKGRFTISRDNSKNSVYLQMNSLKPEDTAVYDCNVVGYAYGWQYDYWGQGTQVNVSS” reads “high polyreactivity”.
